# Square brackets hold non-standard residues; d marks the D form. Ends that are not written are not given here. deamidated = deamidated asparagine; Met(O) = CS(=O)CC[C@H](N)C(=O)O
# Biological target: T1, mouse ADAMTS7 (Mus musculus, UniProt Q68SA9, E373Q)
# T1 construct: Full-length mouse Adamts7 1-1857 (Uniprot Q68SA9, WT or E373Q catalytic mutant); expressed in transfected cells; host or cells: Human Coronary Artery Smooth Muscle Cells (HCA-SMC, Lonza), adenovirus 50 MOI
# T1 sequence (Q68SA9 221-1657 E373Q): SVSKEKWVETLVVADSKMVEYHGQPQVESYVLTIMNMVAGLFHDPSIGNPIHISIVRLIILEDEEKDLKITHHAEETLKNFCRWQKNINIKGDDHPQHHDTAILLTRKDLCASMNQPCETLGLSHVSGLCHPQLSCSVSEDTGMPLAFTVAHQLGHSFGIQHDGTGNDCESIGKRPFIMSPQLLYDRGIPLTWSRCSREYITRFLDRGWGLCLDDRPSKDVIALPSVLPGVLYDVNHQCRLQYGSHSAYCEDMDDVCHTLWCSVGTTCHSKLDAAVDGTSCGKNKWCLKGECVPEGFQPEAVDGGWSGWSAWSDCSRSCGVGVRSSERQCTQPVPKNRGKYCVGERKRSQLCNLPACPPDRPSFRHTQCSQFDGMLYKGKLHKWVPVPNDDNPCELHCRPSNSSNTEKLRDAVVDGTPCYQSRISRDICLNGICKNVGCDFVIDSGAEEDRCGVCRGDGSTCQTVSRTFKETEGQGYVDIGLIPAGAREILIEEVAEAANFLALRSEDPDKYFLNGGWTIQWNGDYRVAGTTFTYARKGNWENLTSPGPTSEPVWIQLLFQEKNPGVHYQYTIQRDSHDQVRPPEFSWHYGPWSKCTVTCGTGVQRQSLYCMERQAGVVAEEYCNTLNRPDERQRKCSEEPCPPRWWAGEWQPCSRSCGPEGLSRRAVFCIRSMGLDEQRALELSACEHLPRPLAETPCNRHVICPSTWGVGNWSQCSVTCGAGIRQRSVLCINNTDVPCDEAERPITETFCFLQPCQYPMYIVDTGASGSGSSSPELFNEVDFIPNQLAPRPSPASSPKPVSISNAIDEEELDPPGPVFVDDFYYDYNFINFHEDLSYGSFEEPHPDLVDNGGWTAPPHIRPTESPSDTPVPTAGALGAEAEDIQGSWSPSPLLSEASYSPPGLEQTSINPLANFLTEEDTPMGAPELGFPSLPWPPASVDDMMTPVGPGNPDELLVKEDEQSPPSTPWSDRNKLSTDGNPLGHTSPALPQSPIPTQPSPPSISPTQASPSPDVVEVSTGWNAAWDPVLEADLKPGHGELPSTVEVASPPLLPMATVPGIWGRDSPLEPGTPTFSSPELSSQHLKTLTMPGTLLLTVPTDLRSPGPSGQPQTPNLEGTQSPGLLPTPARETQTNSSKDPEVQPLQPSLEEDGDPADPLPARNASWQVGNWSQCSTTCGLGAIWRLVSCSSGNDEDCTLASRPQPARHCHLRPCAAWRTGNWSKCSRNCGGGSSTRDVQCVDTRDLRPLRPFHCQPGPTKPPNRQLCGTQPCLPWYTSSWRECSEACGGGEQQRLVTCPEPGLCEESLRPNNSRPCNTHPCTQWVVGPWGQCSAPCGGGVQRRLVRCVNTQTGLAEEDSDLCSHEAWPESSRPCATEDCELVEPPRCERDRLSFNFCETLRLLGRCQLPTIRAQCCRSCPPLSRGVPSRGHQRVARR
# Assay: TMT10 TAILS N-terminomics, SMC1 experiment (Ad-mADAMTS7 WT vs EQ vs Luc, technical replicates, trypsin digest)
# Format: cell-based
# Conditions: TAILS neo-N-terminal peptide abundance; log fold change, Ad-mADAMTS7 EQ over Luc
# Procedure, shortened: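 Full-length mouse ADAMTS7 (WT or E373Q mutant, C-terminal 3xFLAG) or luciferase was transduced via adenovirus, 50 MOI, into HCA-SMC (SMC1, SMC2) or HUVEC. SMC1: pooled media, technical triplicates 400 ug; SMC2: process triplicates 300 ug; HUVEC: process triplicates 200 ug, bFGF2 10 ng/ml.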
row,Substance,logFC.mEQ.over.Luc
1,POSTN_790 (FIEGGDGHLFEDEEIKR; listed as Homo sapiens),−0.31
2,ECM1_43 (YAAPPSPPLSR; listed as Homo sapiens),−0.04
3,COL1A2_731 (AAGQPGAKGER; listed as Homo sapiens),−0.18
4,MAP1B_1065 (LTTPTKQLGAQSPGR; listed as Homo sapiens),−0.20
5,CLEC11A_50 (HLQEALGLPAGR; listed as Homo sapiens),−0.34
6,COL1A2_960 (AGAPGPHGPVGPAGKHGNR; listed as Homo sapiens),−0.35
7,CDC37_43 (FQKEKEELDR; listed as Homo sapiens),−0.12
8,COL5A1_544 (SQAQAILQQAR; listed as Homo sapiens),−0.21
9,MAN2A1_51 (LQEKIDHLER; listed as Homo sapiens),0.18
10,COL8A1_90 (MKEIQPAPR; listed as Homo sapiens),−0.25
11,COL1A2_389 (SAGPPGPPGLR; listed as Homo sapiens),0.39
12,COL4A2_71 (YNGPPGLQGFPGLQGR; listed as Homo sapiens),−0.37
13,POSTN_754 (IITGPEIKYTR; listed as Homo sapiens),0.10
14,MGAT4B_28 (LSGQKGDVVDVYQR; listed as Homo sapiens),−0.23
15,CDH11_467 (HQEAKVPVAIR; listed as Homo sapiens),−0.03
16,COL1A2_1127 (SLRPKDYEVDATLKSLNNQIETLLTPEGSR; listed as Homo sapiens),−0.45
17,COL1A2_681 (VGAPGPAGATGDR; listed as Homo sapiens),−0.34

row,Substance,logFC.mEQ.over.Luc
1,COL1A2_80 (QYDGKGVGLGPGPMGLMGPR; listed as Homo sapiens),0.19
2,PDLIM4_104 (IDPEIQDGSPTTSR; listed as Homo sapiens),−0.13
3,NID2_291 (HSSVPLGR; listed as Homo sapiens),−0.08
4,POSTN_807 (LLQGDTPVR; listed as Homo sapiens),−0.07
5,COL1A2_866 (LLGAPGILGLPGSR; listed as Homo sapiens),−0.24
6,COL4A2_172 (YALPKEER; listed as Homo sapiens),0.76
7,COL1A2_91 (GPMGLMGPR; listed as Homo sapiens),−0.07
8,PXDN_1393 (QKTITDLR; listed as Homo sapiens),0.10
9,NID2_951 (YAYPGAR; listed as Homo sapiens),−0.58
10,NID2_467 (LEDNIGSNTEVFTYNAANKETCEHNHR; listed as Homo sapiens),−0.09
11,POSTN_413 (FSDDTLSMDQR; listed as Homo sapiens),−0.02
12,MMP1_24 (LETQEQDVDLVQKYLEKYYNLKN(deamidated)DGR; listed as Homo sapiens),−0.08
13,NUCB1_317 (FLASTQR; listed as Homo sapiens),−0.11
14,COL1A2_1028 (LQGLPGIAGHHGDQGAPGSVGPAGPR; listed as Homo sapiens),−0.28
15,COL18A1_1505 (LQPPVVQLHDSNPYPR; listed as Homo sapiens),−0.01
16,LTBP2_1602 (EAGVHFR; listed as Homo sapiens),0.64
17,NUCB1_228 (LKEVWEELDGLDPNR; listed as Homo sapiens),0.07

# Other lines, results leading:
row,logFC.mEQ.over.Luc,Substance
1,0.10,MAP4_815 (AVASTGPSSR; listed as Homo sapiens)
2,0.35,PAPPA_41 (AAGPATCATR; listed as Homo sapiens)
3,−0.06,OS9_55 (SQSSDVVIVSSKYKQR; listed as Homo sapiens)
4,0.15,NUCB1_389 (LQQAVLHMEQR; listed as Homo sapiens)
5,−0.16,COL1A2_305 (LTGAKGAAGLPGVAGAPGLPGPR; listed as Homo sapiens)
6,−0.27,COL1A2_630 (VGTAGPSGPSGLPGER; listed as Homo sapiens)
7,−0.17,COL1A2_425 (ASGPAGVR; listed as Homo sapiens)
8,0.00,POLR3G_88 (LFCSHWSHIPGFK; listed as Homo sapiens)
9,−0.61,COL1A2_113 (FQGPAGEPGEPGQTGPAGAR; listed as Homo sapiens)
10,1.36,PXDN_1341 (SYQEDKPTKKTR; listed as Homo sapiens)
11,−0.18,MAP4_816 (VASTGPSSR; listed as Homo sapiens)
12,0.70,COL1A2_270 (VGNAGPAGPAGPR; listed as Homo sapiens)
13,−0.79,COL1A2_1037 (HHGDQGAPGSVGPAGPR; listed as Homo sapiens)
14,0.10,PSAP_171 (F[Met(O)]ANIPLLLYPQDGPR; listed as Homo sapiens)
15,−0.14,NID2_374 (VGGPDLKGQVEPWDER; listed as Homo sapiens)
16,−0.14,OS9_54 ([code q]SQSSDVVIVSSKYKQR; also: modified N-terminal Gln; listed as Homo sapiens)
17,−0.08,PPP1R18_295 (LSETLTR; listed as Homo sapiens)

# — patent US20240368668A1, “SUBSTRATES AND BIOMARKERS OF ADAMTS7” (The Broad Institute, Inc., priority 2021, published 2024)
